{
  "source": "patent US20230416380A1",
  "about": "(AJOU UNIVERSITY INDUSTRY ACADEMIC COOPERATION FOUNDATION, published 2023)",
  "binders": {"B1": {"name": "m2B7 (anti-IL-5Rα mouse antibody) (antibody, V domains shown)", "VH": "QVQLQQPGAELVRPGASVKLSCKASGYTFTSYWINWVKQRPGQGLEWIGHIYPSESYTNYNQKFKDKATLTVDKSSSTAYMQLSSPTSEDSAVYYCTRDYYGRSYYYAMDYWGQGTSVTVSS", "VL": "DIVMTQSHKFMSTSVGDRVSITCKASQNVGTAVAWYQQKPGQSPKLLIYWASTRHTGVPDRFTGSGSGTDFTFTISNVQSEDLADYFCQQFGRYPYTFGGGTKLEIK", "notes": "also called mouse antibody m2B7; mB7"}, "B2": {"name": "benralizumab analogue (benralizumab variable regions with an IgG1 constant region) (antibody, INN chains, looked up, V domains shown)", "VH": "EVQLVQSGAEVKKPGASVKVSCKASGYTFTSYVIHWVRQRPGQGLAWMGYINPYNDGTKYNERFKGKVTITSDRSTSTVYMELSSLRSEDTAVYLCGREGIRYYGLLGDYWGQGTLVTVSS", "VL": "DIQMTQSPSSLSASVGDRVTITCGTSEDIINYLNWYQQKPGKAPKLLIYHTSRLQSGVPSRFSGSGSGTDFTLTISSLQPEDFATYYCQQGYTLPYTFGQGTKVEIK", "modifications": "fucosylated IgG1"}, "B3": {"name": "5R65.7 (anti-IL-5Rα humanized antibody, affinity matured from 5R65) (antibody, V domains shown)", "VH": "QVQLVQSGAEVKKPGSSVKVSCKASGYTFTSYWINWVRQAPGQGLEWIGHIYPNKNENYYNHKFKDKATLTVDKSTNTAYMELSSLRSEDTAVYYCTREFYGRQYYQAMDYWGQGTTLTVSS", "VL": "DIQMTQSPSTLSASVGDRVTITCKASQNVGTAVAWYQQKPGKAPKLLIYWASTRHTGVPDRFSGSGSGTDFTLTISSLQPDDFATYYCQQFGRYPYTFGSGTKVEVK"}, "B4": {"name": "5R65 (anti-IL-5Rα humanized antibody) (antibody, V domains shown)", "VH": "B3 VH with E99D, F100Y, Q104S, Q107Y", "VL": "B3 VL", "notes": "Only VH-CDR2 of hu2B7 was diversified, the light chain is that of hu2B7; also called 5R65 antibody"}, "B5": {"name": "5R68 (anti-IL-5Rα humanized antibody) (antibody, IgG1, V domains shown)", "VH": "QVQLVQSGAEVKKPGSSVKVSCKASGYTFTSYWINWVRQAPGQGLEWIGHIYPTATIAVYNDKFKDKATLTVDKSTNTAYMELSSLRSEDTAVYYCTRDYYGRSYYYAMDYWGQGTTLTVSS", "VL": "B3 VL"}, "B6": {"name": "hu2B7 (humanized m2B7) (antibody, V domains shown)", "VH": "B5 VH with T54S, A55E, T56S, I57Y, A58T, V59N, D62Q", "VL": "B3 VL", "notes": "Expressed from plasmids encoding HC and LC and purified on protein A; also called humanized antibody hu2B7"}, "B7": {"name": "5R86 (anti-IL-5Rα humanized antibody) (antibody, IgG1, V domains shown)", "VH": "B5 VH with A55S, T56S, I57V, A58K, V59F, D62N", "VL": "B3 VL"}, "B8": {"name": "5R80 (anti-IL-5Rα humanized antibody) (antibody, IgG1, V domains shown)", "VH": "B5 VH with T54Q, A55K, I57L, A58T, V59I, D62H", "VL": "B3 VL"}},
  "key": {"[1]": {"target": "T1, sIL-5Rα (extracellular domain of human IL-5 receptor alpha subunit, Asp1-Asn313 of SEQ ID NO: 19, C-terminal … (human, UniProt Q01344 21-333))", "T1 construct": "also called sIL-5Rα antigen protein", "T1 sequence": "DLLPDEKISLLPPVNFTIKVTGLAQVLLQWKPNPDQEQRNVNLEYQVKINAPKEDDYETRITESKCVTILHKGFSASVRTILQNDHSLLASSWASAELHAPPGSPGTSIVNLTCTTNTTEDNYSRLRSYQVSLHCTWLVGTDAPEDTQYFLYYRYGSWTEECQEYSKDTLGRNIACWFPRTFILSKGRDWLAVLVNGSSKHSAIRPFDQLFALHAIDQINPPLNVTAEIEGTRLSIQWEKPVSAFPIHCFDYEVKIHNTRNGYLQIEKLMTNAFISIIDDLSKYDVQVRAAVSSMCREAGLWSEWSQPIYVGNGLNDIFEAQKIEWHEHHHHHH", "experiment": "BLI (Octet QKe), antibody on sensor, sIL-5Rα in solution, 1:1 model", "procedure": "(§1) Specifically, 1× kinetic buffer was prepared by diluting 10× kinetic buffer (ForteBio, 18-1105) in PBS. […] Affinity was calculated with Octet Data Analysis software 11.0 in a 1:1 binding model.\n(§2) Therefore, it was confirmed that the order of affinity was benralizumab>m2B7>hu2B7."}, "[2]": {"target": "T2, sIL-5Rα (extracellular domain of human IL-5 receptor alpha subunit, Asp1-Asn313 of SEQ ID NO: 19, C-terminal Avi tag and 6×His tag, expressed in HEK293F) (human) (UniProt Q01344)", "T2 sequence": "T1 sequence", "experiment": "binding competition ELISA: IL-5-mFc coated (competitor), antibody dilutions plus 100 nM IL-5Rα, anti-his-HRP"}, "[3]": {"target": "T3, human IL-5Rα on cells (TF-1/IL-5Rα cells stably overexpressing IL-5Rα; human eosinophils) (human) (UniProt Q01344)", "T3 sequence (looked up)": "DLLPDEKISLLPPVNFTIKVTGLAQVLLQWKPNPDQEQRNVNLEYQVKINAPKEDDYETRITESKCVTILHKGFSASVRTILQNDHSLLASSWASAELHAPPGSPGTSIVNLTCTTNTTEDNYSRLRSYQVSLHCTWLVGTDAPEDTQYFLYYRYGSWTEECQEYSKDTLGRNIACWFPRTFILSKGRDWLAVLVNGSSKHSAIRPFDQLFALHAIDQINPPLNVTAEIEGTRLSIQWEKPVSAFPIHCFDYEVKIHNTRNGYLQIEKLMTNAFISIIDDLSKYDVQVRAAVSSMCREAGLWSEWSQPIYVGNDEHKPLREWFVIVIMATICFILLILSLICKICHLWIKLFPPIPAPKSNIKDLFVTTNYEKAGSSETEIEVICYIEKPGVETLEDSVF", "experiment": "cell-based or functional assay"}, "[4]": {"target": "T2, sIL-5Rα (extracellular domain of human IL-5 receptor alpha subunit, Asp1-Asn313 of SEQ ID NO: 19, C-terminal Avi tag and 6×His tag, expressed in HEK293F) (human)", "experiment": "BLI (Octet QKe), antibody on AHC sensor, sIL-5Rα in solution, 1:1 model"}, "[5]": {"target": "T4, human IL-5Rα on cells (TF-1/IL-5Rα cells stably overexpressing IL-5Rα; human eosinophils) (human, UniProt Q01344 21-420)", "T4 sequence (looked up)": "T3 sequence (looked up)", "experiment": "cell-based or functional assay"}, "[6]": {"target": "T1, sIL-5Rα (extracellular domain of human …)", "experiment": "BLI (Octet QKe), comparison of KD values", "procedure": "as §1"}, "[7]": {"target": "T1, sIL-5Rα (extracellular domain of human …)", "experiment": "binding competition ELISA: IL-5-mFc coated (competitor), antibody dilutions plus 100 nM IL-5Rα, anti-his-HRP; 5R65 antibody; IL-5-mFc coated, 100 nM IL-5Rα, anti-his-HRP", "procedure": "(§3) Prior to biological efficacy evaluation, binding competition ELISA was performed to determine whether or not anti-IL-5Rα humanized antibodies bind competitively with IL-5 to the IL-5 binding site of IL-5Rα. Specifically, IL-5 (Uniprot code: P05113, Ile20-Ser134) was fused to the G4S linker and the heavy-chain constant region (hinge-CH2-CH3) of mouse IgG2a, was subjected to transient transfection and purified (FIG. 5C). The purified IL-5-mFc proteins were immobilized at a density of 100 ng/well on a 96-well plate at room temperature for 1 hour, and blocked using 0.1% PBST containing 2% skim milk at room temperature for 1 hour. After discarding the solution and then washing the same three times with 0.1% PBST, mixtures of anti-IL-5a antibody [2-fold dilution at 2,000 nM] at various concentrations were prepared and each mixture was added in an amount of 25 μl/well to the blocked plate, 100 nM IL-5Rα was further added at 25 μl/well for 1 hour, followed by reaction at room temperature for 1 hour. […] After discarding the solution and washing three times with PBST, a TMB solution was added in an amount of 50 μl/well, color development was induced at room temperature for 2 minutes and 30 seconds, the reaction was stopped using H₂SO₄ (2N), and the absorbance at 450 nm was measured."}, "[8]": {"target": "T1, sIL-5Rα (extracellular domain of human …)", "experiment": "competition ELISA: IL-5-mFc coated at 100 ng/well, antibody dilution series mixed with His-tagged sIL-5Rα, bound sIL-5Rα detected with anti-His-HRP; blocked ligand IL-5-mFc"}, "[9]": {"target": "T1, sIL-5Rα (extracellular domain of human …)", "experiment": "BLI (Octet QKe), antibody on AHC sensor, sIL-5Rα in solution, 1:1 model", "procedure": "as §1"}, "[10]": {"target": "T1, sIL-5Rα (extracellular domain of human …)", "experiment": "BLI (Octet QKe), antibody on AHC sensor, sIL-5Rα in solution, 1:1 model", "procedure": "as §1, §2", "remark": "listed apart in the source"}, "[11]": {"target": "T1, sIL-5Rα (extracellular domain of human …)", "experiment": "binding competition ELISA: IL-5-mFc coated (competitor), antibody dilutions plus 100 nM IL-5Rα, anti-his-HRP; 5R86 antibody; IL-5-mFc coated, 100 nM IL-5Rα, anti-his-HRP", "procedure": "as §3"}},
  "note": "Changes are numbered by the printed parent chain.",
  "data": [
    {"binder": "B1", "values": [
      {"measurement": "Kd", "setting": "[1]", "value": 40.2, "unit": "nM"},
      {"measurement": "koff", "setting": "[1]", "value": 0.000834, "unit": "s⁻¹"},
      {"measurement": "kon", "setting": "[1]", "value": 20700, "unit": "M⁻¹ s⁻¹"}
    ]},
    {"binder": "B2", "values": [
      {"measurement": "IC50", "setting": "[2]", "value": 9.8, "unit": "nM"},
      {"measurement": "absolute IC50 (Abs IC50), inhibition of IL-5-dependent proliferation of TF-1/IL-5Rα cells", "setting": "[3]", "value": 1.99, "unit": "nM"},
      {"measurement": "Kd", "setting": "[4]", "value": 26.8, "unit": "nM"},
      {"measurement": "koff", "setting": "[4]", "value": 0.0011, "unit": "s⁻¹"},
      {"measurement": "kon", "setting": "[4]", "value": 41100, "unit": "M⁻¹ s⁻¹"}
    ]},
    {"binder": "B3", "values": [
      {"measurement": "abs IC50, inhibition of IL-5-dependent proliferation of TF-1/IL-5Rα cells", "setting": "[5]", "value": 0.57, "unit": "nM"}
    ]},
    {"binder": "B4", "values": [
      {"measurement": "affinity relative to the benralizumab analogue", "setting": "[6]", "value": "~2", "unit": "fold"},
      {"measurement": "IC50", "setting": "[7]", "value": 9.5, "unit": "nM"}
    ]},
    {"binder": "B5", "values": [
      {"measurement": "IC50", "setting": "[8]", "value": 28.8, "unit": "nM"},
      {"measurement": "Kd", "setting": "[9]", "value": 24.1, "unit": "nM"},
      {"measurement": "koff", "setting": "[9]", "value": 0.000566, "unit": "s⁻¹"},
      {"measurement": "kon", "setting": "[9]", "value": 23500, "unit": "M⁻¹ s⁻¹"}
    ]},
    {"binder": "B6", "values": [
      {"measurement": "Kd", "setting": "[10]", "value": 47.8, "unit": "nM"},
      {"measurement": "koff", "setting": "[10]", "value": 0.00106, "unit": "s⁻¹"},
      {"measurement": "kon", "setting": "[10]", "value": 22200, "unit": "M⁻¹ s⁻¹"},
      {"measurement": "IC50", "setting": "[8]", "value": 57.4, "unit": "nM"}
    ]},
    {"binder": "B7", "values": [
      {"measurement": "IC50", "setting": "[11]", "value": 14.1, "unit": "nM"},
      {"measurement": "Kd", "setting": "[9]", "value": 11.8, "unit": "nM"},
      {"measurement": "koff", "setting": "[9]", "value": 0.000325, "unit": "s⁻¹"},
      {"measurement": "kon", "setting": "[9]", "value": 27600, "unit": "M⁻¹ s⁻¹"}
    ]},
    {"binder": "B8", "values": [
      {"measurement": "IC50", "setting": "[8]", "value": 24.2, "unit": "nM"},
      {"measurement": "Kd", "setting": "[9]", "value": 16.2, "unit": "nM"},
      {"measurement": "koff", "setting": "[9]", "value": 0.000365, "unit": "s⁻¹"},
      {"measurement": "kon", "setting": "[9]", "value": 22500, "unit": "M⁻¹ s⁻¹"}
    ]}
  ]
}
